# Data taken from patent US11427812B2, “Antimicrobial agents against Staphylococcus aureus” (LYSANDO AG, priority 2016, dated 2022).
# B1: Clone 11: variant of SEQ ID NO: 107 with mutations K17E, H51Q (protein)
# chain: MAKTQAEINKRLDAYAEGTVDSPYRVKKATSYDPSFGVMEAGAIDADGYYQAQCQDLITDYVLWLTDNKVRTWGNAKDQIKQSYGTGFKIHENKPSTVPKKGWIAVFTSGSYEQWGHIGIVYDGGNTSTFTILEQNWNGYANKKPTKRVDNYYGLTHFIEIPVKAGTTVKKETAKKSATSHEHSAQWLNNYKKGYGYGPYPLGINGGMHYGVDFFMNIGTPVKAISSGKIVEAGWSNYGGGNQIGLIENDGVHRQWYMHLSKYNVKVGDYVKAGQIIGWSGSTGYSTAPHLHFQRMVNSFSNSTAQDPMPFLKSAGYGKAGGTVTPTPNPGNGYKTNKYGTLYKSESASFTANTDIITRLTGPFRSMPQSGVLRKGLTIKYDEVMKQDGHVWVGYNTNSGKRVYLPVRTWNESTGELGPLWGTIKGSHHHHHHGGSKNK
# modifications: Fusion protein comprising CHAP domain of LysK endolysin, M23 endopeptidase domain of lysostaphin, cell wall binding domain of ALE-1, His6-tag and synthetic peptide KNK
# B2: SEQ ID NO: 107: fusion protein: CHAP domain of LysK, M23 endopeptidase domain of lysostaphin, CBD of ALE-1 and a further peptide (cathepsin G (77-83) or KNK) (protein)
# chain: MAKTQAEINKRLDAYAKGTVDSPYRVKKATSYDPSFGVMEAGAIDADGYYHAQCQDLITDYVLWLTDNKVRTWGNAKDQIKQSYGTGFKIHENKPSTVPKKGWIAVFTSGSYEQWGHIGIVYDGGNTSTFTILEQNWNGYANKKPTKRVDNYYGLTHFIEIPVKAGTTVKKETAKKSATSHEHSAQWLNNYKKGYGYGPYPLGINGGMHYGVDFFMNIGTPVKAISSGKIVEAGWSNYGGGNQIGLIENDGVHRQWYMHLSKYNVKVGDYVKAGQIIGWSGSTGYSTAPHLHFQRMVNSFSNSTAQDPMPFLKSAGYGKAGGTVTPTPNPGNGYKTNKYGTLYKSESASFTANTDIITRLTGPFRSMPQSGVLRKGLTIKYDEVMKQDGHVWVGYNTNSGKRVYLPVRTWNESTGELGPLWGTIKGSHHHHHHGGSKNK
# modifications: Fusion protein comprising CHAP domain of LysK endolysin, M23 endopeptidase domain of lysostaphin, cell wall binding domain of ALE-1, His6-tag and synthetic peptide KNK
# B3: Clone 15: variant of SEQ ID NO: 107 with mutations K17E, H51Q, K28N, T86A, G154S (protein)
# chain: MAKTQAEINKRLDAYAEGTVDSPYRVKNATSYDPSFGVMEAGAIDADGYYQAQCQDLITDYVLWLTDNKVRTWGNAKDQIKQSYGAGFKIHENKPSTVPKKGWIAVFTSGSYEQWGHIGIVYDGGNTSTFTILEQNWNGYANKKPTKRVDNYYSLTHFIEIPVKAGTTVKKETAKKSATSHEHSAQWLNNYKKGYGYGPYPLGINGGMHYGVDFFMNIGTPVKAISSGKIVEAGWSNYGGGNQIGLIENDGVHRQWYMHLSKYNVKVGDYVKAGQIIGWSGSTGYSTAPHLHFQRMVNSFSNSTAQDPMPFLKSAGYGKAGGTVTPTPNPGNGYKTNKYGTLYKSESASFTANTDIITRLTGPFRSMPQSGVLRKGLTIKYDEVMKQDGHVWVGYNTNSGKRVYLPVRTWNESTGELGPLWGTIKGSHHHHHHGGSKNK
# modifications: Fusion protein comprising CHAP domain of LysK endolysin, M23 endopeptidase domain of lysostaphin, cell wall binding domain of ALE-1, His6-tag and synthetic peptide KNK
# B4: SEQ ID NO: 105: fusion protein: CHAP domain of LysK, M23 endopeptidase domain of lysostaphin, CBD of ALE-1 and a further peptide (cathepsin G (77-83) or KNK) (protein)
# chain: MAKTQAEINKRLDAYAKGTVDSPYRVKKATSYDPSFGVMEAGAIDADGYYHAQCQDLITDYVLWLTDNKVRTWGNAKDQIKQSYGTGFKIHENKPSTVPKKGWIAVFTSGSYEQWGHIGIVYDGGNTSTFTILEQNWNGYANKKPTKRVDNYYGLTHFIEIPVKAGTTVKKETAKKSATSHEHSAQWLNNYKKGYGYGPYPLGINGGMHYGVDFFMNIGTPVKAISSGKIVEAGWSNYGGGNQIGLIENDGVHRQWYMHLSKYNVKVGDYVKAGQIIGWSGSTGYSTAPHLHFQRMVNSFSNSTAQDPMPFLKSAGYGKAGGTVTPTPNPGNGYKTNKYGTLYKSESASFTANTDIITRLTGPFRSMPQSGVLRKGLTIKYDEVMKQDGHVWVGYNTNSGKRVYLPVRTWNESTGELGPLWGTIKHHHHHHLKHPQYNQR
# modifications: Fusion protein comprising CHAP domain of LysK endolysin, M23 endopeptidase domain of lysostaphin, cell wall binding domain of ALE-1, His6-tag and synthetic peptide HPQYNQR
# Columns and labels:
# [1] = tested on: S. aureus Sp10; experiment: MIC assay over several culture cycles (resistance development); format: cell-based, Staphylococcus aureus
# From the text: Becker et al. (Sci Rep. 2016 Apr. 28; 6:25063) reported construction of fusion protein L-K with reduced incidence of resistant S. aureus strain development. In an attempt to provide other improved fusion proteins against S. aureus, the inventors generated two fusion proteins, each comprising the CHAP domain of LysK endolysin, the M23 endopeptidase domain of lysostaphin; and the cell wall binding domain (CBD) of ALE-1. In addition, one of the fusion proteins did comprise the cathepsin G (77-83) peptide (SEQ ID NO:94), the other the cationic peptide KNK (SEQ ID NO:38). The resulting fusion proteins (SEQ ID NO:105 and SEQ ID NO: 107) were assayed for antibacterial activity and resistance development. For this purpose MIC (minimal inhibitory concentration) assays (see below) were carried out for several culture cycles.
# MIC assay S. aureus Sp10 was grown in (Luria-Bertani) medium and diluted 1:10 in Mueller-Hinton medium. At an optical density OD600 of about 0.6, bacteria were diluted in the same medium 1:10 followed by a 1:500 dilution. Protein buffer (20 mM HEPES, 500 mM NaCl, pH 7.4) and proteins or gentamycin were pipetted into a 96 well plate, using different concentrations of proteins/gentamycin and an end volume of 20 μl. The proteins used were the fusion proteins according to SEQ ID NO:105 and SEQ ID NO: 107. 180 μl of bacterial cells or a medium (Mueller-Hinton) control were given to the 96 well plate and mixed. The plate was incubated for 18-22 hours at 37° C. and the bacterial growth was determined measuring the OD600 values of the wells. The well with the lowest concentration of protein/gentamycin showing the same OD600 value as the medium control was taken as MIC. For the next cycle, the bacterial solution from the sub-MIC well was used. The sub-MIC well is the well in which the next lower concentration to the MIC concentration was tested, i.e. the well with the highest concentration of protein/gentamycin but still OD600 above the medium control. For further cycles of the resistance assay, the bacteria from this sub-MIC well of the previous cycle were taken for the next over-night culture.
# [2] = tested on: Staphylococcus aureus DSM 346; experiment: Thermal stability assay (standard MIC assay after heat incubation); format: cell-based; details: for MIC: protein 0.3 mg/ml, DSM 346; for thermal stability: in comparison to the unmodified fusion protein
# Description: In addition, thermal stability was assessed for two of said mutants in comparison to the unmodified fusion protein. The thermal stability assay was carried out with the strain Staphylococcus aureus DSM 346. The proteins were diluted to a concentration of 0.3 mg/ml followed by an incubation for 20 minutes at different temperatures (see table 8 below). A standard MIC assay was carried out after this incubation time.
# [3] = cycle 1 (initial MIC), S. aureus Sp10
# [4] = cycle 1, fold change over initial MIC (cycle 1)
# [5] = cycle 6, fold change over initial MIC (cycle 1)
# [6] = cycle 12, fold change over initial MIC (cycle 1)
# [7] = after 20 minutes incubation at 44.6° C.
# [8] = after 20 minutes incubation at 47.1° C.
# [9] = after 20 minutes incubation at 49.7° C.
# [10] = after 20 minutes incubation at 52.3° C.
# [11] = after 20 minutes incubation at 54.9° C.
# [12] = after 20 minutes incubation at 57.4° C.
# [13] = after 20 minutes incubation at 60° C.
# [14] = after 20 minutes incubation at RT
Molecule,"Minimal inhibitory concentration (MIC) [1, 3]","Fold change of MIC [1, 4]","Minimal inhibitory concentration (MIC) ([1]; cycle 6, S. aureus Sp10)","Fold change of MIC [1, 5]","Minimal inhibitory concentration (MIC) ([1]; cycle 12, S. aureus Sp10)","Fold change of MIC [1, 6]","MIC [2, 7]","MIC [2, 8]","MIC [2, 9]","MIC [2, 10]","MIC [2, 11]","MIC [2, 12]","MIC [2, 13]","MIC [2, 14]",thermal stability [2]
gentamycin [reference compound],0.8 mg/L,1,4 mg/L,5,6 mg/L,7.5,,,,,,,,,
B1,,,,,,,6 mg/L,10 mg/L,10 mg/L,16 mg/L,>30 mg/L,>30 mg/L,>30 mg/L,4 mg/L,increased thermal stability
B2,4 mg/L,1,4 mg/L,1,6 mg/L,1.5,20 mg/L,25 mg/L,30 mg/L,30 mg/L,>30 mg/L,>30 mg/L,>30 mg/L,6 mg/L,
B3,,,,,,,4 mg/L,4 mg/L,4 mg/L,4 mg/L,4 mg/L,6 mg/L,8 mg/L,4 mg/L,increased thermal stability
B4,4 mg/L,1,4 mg/L,1,6 mg/L,1.5,,,,,,,,,
